Results taken from patent US20050095674A1, “Cannabinoid receptor interacting proteins and methods of use” (priority 2003, published 2005).

Experiments:
[1] = target: rat CB1 cannabinoid receptor, wild type (rat) (UniProt P20272); assay: cell-based or functional assay
[2] = target: T1, CB1 receptors (Rattus norvegicus, UniProt P20272); assay: Whole-cell patch clamp of Ca2+ currents in SCG neurons microinjected with rCB1 and rat CRIP1a; assay type: cell-based
T1 construct: expressed in transfected cells
T1 sequence (P20272 whole entry): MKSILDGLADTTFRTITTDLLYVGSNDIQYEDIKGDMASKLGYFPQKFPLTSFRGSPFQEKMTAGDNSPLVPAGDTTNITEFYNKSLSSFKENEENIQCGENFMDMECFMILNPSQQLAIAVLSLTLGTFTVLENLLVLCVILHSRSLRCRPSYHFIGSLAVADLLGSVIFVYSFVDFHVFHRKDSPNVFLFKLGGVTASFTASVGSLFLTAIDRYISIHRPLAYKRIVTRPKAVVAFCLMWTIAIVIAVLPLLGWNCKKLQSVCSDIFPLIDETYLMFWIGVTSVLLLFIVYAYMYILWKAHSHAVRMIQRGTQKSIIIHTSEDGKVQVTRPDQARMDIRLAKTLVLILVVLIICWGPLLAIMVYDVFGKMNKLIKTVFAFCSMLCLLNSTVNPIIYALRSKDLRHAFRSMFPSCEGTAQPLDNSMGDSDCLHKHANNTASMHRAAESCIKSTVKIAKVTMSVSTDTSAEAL

[3] = target: T2, CB1-464 truncated receptor (Rattus norvegicus, UniProt P20272); assay: Whole-cell patch clamp of Ca2+ currents in SCG neurons expressing the CB1-464 truncated receptor; assay type: cell-based; conditions: coexpression of CRIP1a with CB1-464 truncated receptor
T2 construct: expressed in transfected cells
T2 sequence (P20272 1-464 limits assumed): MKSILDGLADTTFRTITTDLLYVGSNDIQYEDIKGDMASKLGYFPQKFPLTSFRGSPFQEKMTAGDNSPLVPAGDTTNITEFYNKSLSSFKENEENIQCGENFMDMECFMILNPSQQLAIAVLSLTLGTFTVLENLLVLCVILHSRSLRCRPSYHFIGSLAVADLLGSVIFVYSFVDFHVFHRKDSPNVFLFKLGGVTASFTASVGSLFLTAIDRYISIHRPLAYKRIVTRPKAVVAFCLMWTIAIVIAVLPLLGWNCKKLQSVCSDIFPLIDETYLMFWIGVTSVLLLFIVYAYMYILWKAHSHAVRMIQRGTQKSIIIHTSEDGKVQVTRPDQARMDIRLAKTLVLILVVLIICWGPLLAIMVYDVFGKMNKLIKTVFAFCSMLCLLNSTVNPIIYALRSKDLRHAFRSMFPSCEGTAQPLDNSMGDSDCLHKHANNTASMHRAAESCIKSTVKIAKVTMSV

[4] = target: T3, C-terminal tail of CB1 (amino acids 464-473 of rat CB1) (Rattus norvegicus, UniProt P20272); assay: Yeast two-hybrid, CB1 receptor interaction site with CRIP1b; assay type: binding
T3 construct: C-terminal tail of CB1 (amino acids 464-473 of rat CB1); expressed in transfected cells; host or cells: yeast (strain not restated for this experiment)
Description: The yeast two-hybrid technique was used to determine the CB1 receptor interaction site with CRIP1b. The C-terminus of the CB1 receptor contains separate domains critical for desensitization and internalization (Hsieh et al., 1999; Jin et al., 1999).

[5] = target: T4, GST-CB1 (418-472) (Homo sapiens, UniProt P21554); assay: In vitro pull-down assay (GST affinity chromatography) of bacterially expressed proteins; assay type: binding
T4 construct: encoding amino acids at position 418-472 of the CB1 receptor into the pGEX-4T-1 expression vector; made in house; host or cells: bacteria; BL21(DE3) E. coli is stated for CRIP1b only
T4 sequence (P21554 418-472): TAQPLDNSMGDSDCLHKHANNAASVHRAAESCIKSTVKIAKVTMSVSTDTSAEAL
Method: To confirm the interaction between the CB1 cannabinoid receptor and the interacting protein CRIP1b, in vitro pull-down assays of bacterially expressed proteins were performed. A GST fusion peptide was created between GST and a peptide of the CB1 receptor by cloning the polynucleotide sequence encoding amino acids at position 418-472 of the CB1 receptor into the pGEX-4T-1 expression vector. This GST fusion peptide was expressed and purified using standard protocols. GST alone and purified GST/CB1 fusion peptide were coupled to a first and second Glutathione Sepharose-4B column, respectively, as per standard protocols (Smith and Johnson, 1988, Gene, 67:31-40).
Polymerase chain reaction (PCR) was used to amplify the amino acids at positions 34-128 of CRIP1b in the pCT2 shuttle vector with EcoRI and XhoI restriction endonuclease sites. The PCR product was inserted in-frame into a pET30C expression plasmid harboring an S-tag (Novagen, Wis.). The resulting plasmid was transformed into BL21(DE3) E. coli cells, and these cells were induced to express CRIP1b by the introduction of isopropyl β-D-thiogalactopyranoside.
The bacteria were lysed in a buffer containing 50 mM Tris-Cl (pH 8.0), 1 mM EDTA, 100 mM NaCl, phenylmethylsulfonylfluoride (PMSF) (8 μl of 50 mM PMSF per gram of bacterial pellet). […]

[6] = target: T5, C-terminus (amino acids 418-472) of the CB1 cannabinoid receptor (Homo sapiens, UniProt P21554); assay: Yeast two hybrid, domains of CRIP1b against the CB1 C-terminus; assay type: binding; conditions: CRIP1b parts tested alone and in combination
T5 construct: expressed in transfected cells; host or cells: Y190 yeast cells
T5 sequence (P21554 418-472): as above
Method: A human brain cDNA library (Clontech) containing 5×10^6 independent clones with an average insert size of 1.5 kb fused to the GALA activation domain was cotransformed into Y 190 yeast cells with a bait plasmid consisting of the amino acids at positions 418-472 of the human cannabinoid receptor (CB1) fused to the GALA DNA binding domain. An overnight culture of Y190 cells was diluted to an OD600 of 0.08 (20 ml/reaction) and incubated at 30° C. until an OD600 of 0.2-0.4. The cells were washed in […] of water and resuspended in […] of 100 mM LiAc, 10 mM Tris-HCl, pH 7.5, and 1 mM EDTA (LiAc/TE). Single stranded herring testis DNA (200 μg), 20 μg of bait plasmid, 20 μg of carrier plasmid, and 1.2 ml of 40% polyethyleneglycol/LiAc/TE were added to the cells, followed by incubation at 30° C. for 30 minutes at 225 rpm. […] After incubation of the plates at 30° C. for 3-5 days, β-galactosidase activity of the colonies was assessed by lifting colonies onto filters, lysing the colonies by freezing in liquid nitrogen, and exposing the filters to 20 mg/ml X-gal in phospate-containing buffer.
To determine which domains of CRIP1b interact with the C-terminus (amino acids 418-472) of the CB1 cannabinoid receptor, yeast two hybrid experiments were performed. […] When each exon was tested alone, no interaction was detected (FIGS. 5A, 5C, and 5E). […]

[7] = target: T6, GST alone coupled to Glutathione Sepharose-4B (UniProt P08515 1-218 = GST); assay: affinity chromatography on Glutathione Sepharose-4B, SDS-PAGE and S-tag Western blot
T6 construct: the lane descriptions speak of glutathione Sepharose only; also called GST column; glutathione sepharose only column
T6 sequence (P08515 whole entry): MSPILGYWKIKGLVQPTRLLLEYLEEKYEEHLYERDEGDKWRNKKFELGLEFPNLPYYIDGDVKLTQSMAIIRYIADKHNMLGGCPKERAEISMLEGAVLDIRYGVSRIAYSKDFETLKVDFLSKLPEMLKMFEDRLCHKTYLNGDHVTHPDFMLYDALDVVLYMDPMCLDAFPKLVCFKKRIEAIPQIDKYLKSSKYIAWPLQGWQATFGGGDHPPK

[8] = target: T7, amino acids at positions 418-472 of the human cannabinoid receptor (CB1) fused to the GALA DNA binding domain (human, UniProt P04386 1-147; P21554 418-472); assay: yeast two-hybrid, beta-galactosidase colour
T7 construct: Yeast two-hybrid bait in Y190 cells; also called bait plasmid

Molecule: rat CRIP1a (from UniProt Q5M7A7 1-164)
- Ca^2+ current facilitation ratio [1]: 1.26

B1: CRIP1a: CB1 receptor interacting protein 1a cloned from rat brain cDNA, 164 amino acids, SEQ ID NO:7 (protein, listed as Rattus sp.)
chain: MGDLPGIVRLSIALRIQPNDGPVFFKVDGQRFGQNRTIKLLTGSSYKVEVKIKPTTLQVENISIGGVLVPLELKCKEPDGERVVYTGIYDTEGVAPTKSGERQPIQITMPFTDIGTFETVWQVKFYNYHKRDHCQWGSPFSVIEYECKPNETRSLMWVNKESFL
- Ca2+ current facilitation ratio ([2]; SCG neurons expressing CB1 receptors co-expressed with CRIP1a, 1.46±0.08 with CB1 alone): 1.26±0.03
- effect on agonist-induced (WIN55,212-2) inhibition of the Ca2+ current ([2]; SCG neurons expressing both CB1 and CRIP1a): had no effect on the agonist-induced inhibition of the Ca^2+ current
- effect on SR141716-induced increase of Ca2+ current (constitutive activity of CB1) ([2]; co-expression of CRIP1a with CB1 receptors in SCG neurons): significantly inhibited the effect of SR141716
- effect on SR141716-induced increase of Ca2+ current ([2]; expression of CRIP1a alone, without CB1): had no effect
- effect on SR141716-induced increase of Ca2+ current [3]: did not significantly inhibit effect of SR141716

B2: CRIP1b: CB1 Receptor Interacting Protein 1b, 128 amino acid human polypeptide, SEQ ID NO:2; amino acids 34-128 used in pull-down (protein, listed as Homo sapiens)
chain: MGDLPGLVRLSIALRTQPNDGPVFYKVDGQRFGQNRTIKLLTGSSYKVEVKIKPSTLQVENISIGGVLVPLELKSKEPDGDRVVYTGTYDTEGVTPTKSGERQPIQITMPECLEQRPQEISLTYECEE
- interaction in yeast two-hybrid with the most distal 9 amino acids of the CB1 receptor ([4]; minimal CB1 domain tested): strong interaction
- interaction in yeast two-hybrid with the CB1 desensitization and internalization domains ([4]; separate C-terminal domains of CB1): neither of these domains interacted strongly
- pull-down by GST-CB1 (418-472) on glutathione-Sepharose 4B ([5]; S-tagged CRIP1b (amino acids 34-128) bacterial lysate): pulled down
- binding to glutathione Sepharose-4B matrix without CB1 fragment (control) ([5]; S-tagged CRIP1b bacterial lysate): did not bind to glutathione Sepharose-4B on its own

B3: CRIP1b exon 1 and exon 2: Exon 1 (amino acids 34-60 of SEQ ID NO:2) and exon 2 (amino acids 61-110) in combination (protein, listed as Homo sapiens)
chain: QNRTIKLLTGSSYKVEVKIKPSTLQVENISIGGVLVPLELKSKEPDGDRVVYTGTYDTEGVTPTKSGERQPIQITMP
- interaction in yeast two hybrid [6]: positive interaction

B4: S-tagged CRIP1b (amino acids at positions 34-128) expressed from pET30C in BL21(DE3) E. coli (other)
chain: QNRTIKLLTGSSYKVEVKIKPSTLQVENISIGGVLVPLELKSKEPDGDRVVYTGTYDTEGVTPTKSGERQPIQITMPECLEQRPQEISLTYECEE
notes: also called CB1-IP1; CRIP1b lysate; not shown: vector-encoded leader of pET30C with the S-tag
- interaction in yeast two hybrid [6]: enhanced
- binding result [7]: no binding

Molecule: NISIGGVLVPLELKSKEPDGDRVVYTGTYDTEGVTPTKSGERQPIQITMP (other, not shown: large carriers, Yeast two-hybrid construct) [CRIP1b exon 2 (amino acids 61-110 of SEQ ID NO:2)]
- binding result [8]: no binding
